A protein production outcome set (Wang et al. 2014)

test: label from the status in PepcDB records

Sequence | protein production
MTDLPPPFTTLAAAHRVDAVIDHSEFLAFAERADSPEEALAHLAALRTRYPDATHHCWAYRIGAAYRFGDDGEPGGTAGAPILRAIEGQGVDHVMVVVVRYYGGVKLGTGGLVRAYGGVAAECLRTAPRLDVRPRRTLQVSVPFDHLSGLYHLLGTWDAARGEETYTGAGVTLPVEVYPEDVEAFQAALRDATRGSAVVEEEE | not failed
MTDLWLTLVNSVNAALGEVHVMTAWEALAVVLAMAYLLLAMKASVWCWAAAFTSTAIYTVLFWKVALLMESMLNIYYMGMALYGYWLWTQGGDKHQGVKVTTWPLKTHLKLIAATTLVSLGIGHGMATFTQASFPYLDAATTCFAVMTTYLVAKKVLENWLYWVVIDLVSIYLYLSKGLMLTSLLFVLYVGLAVVGYFLWRTALAESRLNLNGERAAKLLG | failed
MTDQTRTSPLVNRLLKMISLCALGYLLIILAIIIPRGIQSVEQQKQELEEKLALSLSNSAAIALYVNNYDIASEVMDALLLHQEINAVKLASVDGIVFERTTIPSTYKEQNYWSDANRYRLDSPVDGNLIGYLMIHEDHQVIRQQAINQILDQIAVVLIQFLVTFIALIWIVRRLVGKPLTDLSQALSEVRPDHDRKVAVAAEDHHNEIGLVAKSINEFIDASHQALLRERELRQQIERWESYYRTIAEQDTLTGLKNRLGCEKFVLRKQRASTTMVLLLIDLDGFKQVNDTLGHAAGDEVLREIAKRFYALAQTHFSDFVVGRLGGDEFAIYIPLDEFVAESIERFAAQLIESSSEPIGLGQQSAQVGCSIGISHMNSLHIDLEKLLLQADKAMYWVKYRGKHGYHIYRMGEEILPLPSAKELKQDQFR | failed
MTDRAPADKYVVWVVLALSSVGVVAVYSAVTYLAEVRAGTEPVHFLLRHLARVGIALGAMGVVSLIDYRTLARYSRLALVGTLLLLVAVKVVGLFSGGADRWLQIGGVGFQPSEFARVALVLYVAVLLVQKQDYVKSFSRTFLPVLFWVGVTVGLIALDDLSTALVLLLGVLLMSFVGRVSVLQIGGLAVLGGVMAFGVLSTSPDRAARLEAYLGMDLFPNTDTEQVMDARGEQYQSRQARMAFAAGGFTGVGPGKSVQRDFLPEPYNDFIFAIIAEEYGIFGALALLTGFFVLLFRGYLRIARDAPDPLGLILAVGMTTLVVTYGFVHAGVASGLLPVTGLPMPFVSYGGTSLLANGIMIGVLLNISRHAGQRSAERV | failed
MTDRDSLEPISRDELQARVAAGSVLVLDVRPAMEYAAGHLPGAVSIPLDELAERLDELPSGIDIVACCRGPYCVYAYDALELLRPNGFSARRLDGGFSEWLAADLPVVRTLEHHHHHH | not failed
MTDRLERKLAIAANQDKADLLIKNGQIVDVFQLETFEGDVVIADGEIVAISDPGTYEAHEEVDAKGAFIAPAFIDGHVHIESSMVAPEQFAKVVVPHGVTTVIADPHEIANVAGVQGVEYMLDASEGIPLDVKMMVPSCVPATPFEHSGARLTAEEVAELFRDPRIFGLGEVMDYPAVLTRDQEMMAKLKAAHSEGRIVDGHGAGLDSVALNAYTAAGIGNDHEAVTPEEAKARLQRGMYLLIREGTAAKDFDALMKAITPMNSRRALFVTDDKHLDELVEEGSIDHHVRKAIQIGVNPLQAIQMASLNAAECFKLAKKGAIAPGFTADLLFIEDLQSLAITHVFKNGTCVAKNGKLIVPIRETVQPPQRLLESVNMKLVTKEQLELSLQSDEEAHLIQIQPGSIVTKHIREKVAVKDGVFIPSVARDQLKLVVAERHHKRGTVGVGIVKGFGLTKGAIATTVAHDSHNIVAVGTNDEDLLAAIKELENIQGGMTIVKDGKVLVSLPLTIGGLMSDQSYDVVCEQIKSVDAAIGALGFVGDFNPFLTLSFLALPVIPEIKLTDQGLFDVTSFSFIDQQVYAEETN | failed
MTDSTTELTPAAPVSWPDGKTCAVAFTFDVDAESPLLTTDPAFADRMGTMSHQAYGPLVGVPRLLGILDEFNVPGTFFVPGYTAHRHPEPIRSIARAGHEIAHHGYLHESLVGADEDTERKILTRGIEALEEVAGVHPVGYRAPMWEMNWHTPKLLAEFGFLYDSTLMDSDHPYELAVGDGSLVELPVSWALDDWQQYCFVPDFSGTGLIETPAKAIELWRAELNAMRDIGGAWVLTNHPFLSGRPGRAAALREFIAEVCAMDDVWVAGMSQIAEHVRAQKLTPRTLTRPELTPVAE | not failed
MTDSTTLQQPAGANNLYGGLLSAQGLDLDQFETIHTQVQAWKTTAGTDVKFVEARELPIVDVILRFKAGTTQDTLYPGLAALTLSMLDEGSQAYTAAQQAEHLERLGAVMEKQVRLEHATLRLRSLSPPSLLDPALAVFTDLVAHPVFHPMALTRIKRQLLQNHASRERLPILRARSEVFRHLFNGHPYGNPLGSTAQGIEAITPEDLRAFHQRAYSASNLEMVVVGDLSPGQAQAISQQISQALPQGWSATELPAAPSAPSATIAVEQAGASSAILLALPMNVPANDPEFLALALASAVLGEGLESRLMVELRQRRGLTYGVHTHVLPLSAGGLFTVEWEVAPQHVQGTQALVETLLQAFIDEGPTQLELQLARKQLEGQLLRGIAQNRQLATLLTEVTHQRQPADHLDTYSARIAELTPADVRAVMQRRLALSHKVLVSVGPGVQQQPLPAPDQ | failed
MTDTNTLLVTSLEEGIGKTAITLALATRAHDAGYDVGYMKPKGTRLRSAVGKTRDEDPMLARELLDLETDLHDMEPIVYSPTFIQEAIRGREDPDDLRERLQEGIETCSDGTDMLLVEGSSDLATGSIVDLTDIDIAELLDARVLLVTGYDTPSDTDEILSAAEAIGDRLDGVLFNGVTDATVDELADDVVPFLEGEGIPVHGILPRDRSLAGVTVADLARNLGADILTGDANTDVHVERFSVGAMSGSSALERFRRTRDAVVVTGGDRSEVQTAALEASGINALLLTGGFQPASAVIGQAAEKNVPVLSVQSDTRTTIDRVEEVLRTGQTRNEATVDRMRTLLDDGVDVESLLSVDLLEHHHHHH | not failed
MTDTTQRIFLSYAGPDQAWAEWVGWQLQQAGHQVELDRWHWRTGDDFVQKMNLALGKADAVVALFSRHYFEPKRWTREEWSAAVALRGRLVPVAIELLNDDDIPALLAGTLRTDVHGLDEAAATSALLEAVHGPVPPTGPVDFPGAASADAPTAPDAQRPRLPSSVGLPEVWNVRRRNPDFSGRETVMGQLRTGLLSGRQAVVQALHGMGGIGKTQIALEYAHRFASQYDLVWWVDAEQADQLPVRYTELADRLGVAKSDAGSEPNARALLQHLRTRHRWLLVLDNAEHPDQIEPWLPEGPGHVLITSRNPDWHGIAHQSDLDVFTRTDSLAYLKGRISGMTTEHADLLAQDLGDLPLALAQASGVLRSGMTLDRYRRLLTTDTARLLQESDVRDHPAPLAATVGIAVTRLADDGHADAVALLRLGAFLGPEPIPTAWLETARPRLATIPGDPDDPMWLRNALQPLGRFGLARTDYDAFQIHRLTQAILRTQTGPDPVVAIRDDVTAVLAAVDPGDPRSPADWPAWASLTAHLTAPHVTTALAHQAALRATFSKAAHFLICSGLPRAAHDLSAALHQAWSTDLGPDHPDTLTCAQFLGHATVDLGDYAKGRLIIEDTLVRRRRVLGEDHPDTLRSANDTSTNLSLLGERVEARRMHEDVLARRRRVLGEDHPDTLTSAGNLATILNKSGEYVEARRMQEDVLARRRRVLGEDHPDTLTSAHNLAGLLNSLGEHAESRRMQEDVLARRGLVLGEDHPDTLSSASNLATSLNSLGEHAESRRMHEDVLARRGLVLGQDHPDTLSSANKLATSLNGLGEHAEARRMHEDVLARRGVVLGQDHPSTLASAGNLATTLNSLGEHVEAHRMQEDVLARCRRVLGQDHPDTLTSASNLARTLHTLRQYSEAAELLKEVRASYVRHFGAKHPKTELATRNLATVLIAMGKTHEAQQLTGRKSDKGKRRFGRKRR | failed
MTEAIVASVATEPSLRPLAVLLVPLVTVGLIFLSKNRPNIREAWSILAAVTMFGIVASMVPDVLNGRVHETDLGFFVEGIELVLRADGLGMLFALVASGLYVVTAIYSIGYMRGHHEPFQTRFFAMLCASVGAALGVAFASNLFMLLVFYEVLTLATYPLVAHDESEKARVSGYKYLAYALSGGLAVFGGMLAVYWLTDPSTITFTRGGIEGLATVAAADPWAARGAFALLAGGFAVKAAVMPLHSWLPSAMVAPTPVSGLLHAVAVVKAGAFGVARTIIDVFGPETVRQIGMGLPLTIAAGATILIASLFALRQDNLKARLAYSTIAQLSYIVLGLSLLSGMGLMGGLLHIPAHAFSKLTLFLCAGALYVELDVKYISEMAGVGKRMPVTMGAFGLASFSMAGIPLMAGFVSKWHLIWGGAEAGYLLVAPLLVLSGVLNVAYFWPIIYTAFFESEDDADQKPVLDNPFGGVFDDDAYLTDGGVSSDDQHEDDSHDDHHDDGHHARPELPPAGGWDRSNWYGGETTLLLVAPLVTTATLMFIFGVAPDYIVFFDLIEGIVDGALEVDN | failed
MTEARKIPKPSFPYGSPGELNSFLPYLLTRITHIWSSELNQALASEKLPTPKLRLLSSLSAYGELTVGQLATLGVMEQSTTSRTVDQLVDEGLAARSISDADQRKRTVVLTRKGKKKLAEISPLINDFHAELVGNVDPDKLQTCIEVLGEILKGKTDY | not failed
MTEEQFSSYHPPLPPTTEEDRFSWLRLLRSRRVGPTTFRRLMHEHGTAQNALAALPEVARAAGVEGYEICPPGVVEAELKAAKAAKARLLCLGDADYPSHLAGISDAPPLLWLLGDPALLRRPMIALVGARNASSLGTRMARALAQDLGTAGFVVVSGLARGIDTAAHLAALPSGTIAVMAGGVDTVYPAENTHLAADIAQHGLRLSEQPMRLTPQARHFPRRNRIISGLAQAVVVVEAAAKSGSLITARDALDQGREVLAVPGHPFDARAAGCNMLIRDGAHLVRNAEDVITALPALTAPQPQPDLCDLMQQPAPPAKRSLRETVALHSLILDRLGPSPVAEDQLIRDLAASPGEVAPVLVDLELEGRINRQAGGLLSRVN | failed
MTEKFGAKSTADEVLSGVDLRGKRFLITGVSSGIGLETARALVAHGASVVGAVRDRAKAERATASVRDAASQGGGTLELTELDLASLQSIRACADRLLADGRRFDSIIANAGVMATPFARTADGFELQFGTNHLGHFALVNRIASLLADNGRLVVLSSQAHRVADVDLDDPNFERQAYDPWVAYGRSKTATSLFAAEFDKRHRDRGIRAASVMPGNSLTDLPRHLRQEDLQGLFETVGKARAEAGLPPAELKDIPQVAATSVWAAVVADKDEIGGHYLDDCAVAPINDTPNPFADGVRSYALDADKAKRLWAKSEEWIGANTAAI | failed
MTELNFHLLPIISDRFTTTTTTSPSFSSHSSSSSSLLSFTKRRRKHQPLVSSIRMEQSRSRNRKDKVVVILGATGAGKSRLSVDLATRFPSEIINSDKIQVYEGLEITTNQITLQDRRGVPHHLLGVINPEHGELTAGEFRSAASNVVKEITSRQKVPIIAGGSNSFVHALLAQRFDPKFDPFSSGSCLISSDLRYECCFIWVDVSETVLYEYLLRRVDEMMDSGMFEELSRFYDPVKSGLETRFGIRKAIGVPEFDGYFKEYPPEKKMIKWDALRKAAYDKAVDDIKRNTWTLAKRQVKKIEMLKDAGWEIERVDATASFKAVMMKSSSEKKWRENWEEQVLEPSVKIVKRHLVQN | failed
MTEPATAESAPAALREMRWWDIDPVLRMERELFPEDAWSRGMFWSELAHARGPGATRRYLVAEEDGHVVGYAGLVTSGEQADVQTIAVARDHWGTGLGARLLTELLRAATDFECTEVLLECRVDNTRAQRLYERFGFEPIGFRRGYYQPGNVDALVMRLTDPSTSVPGTERGTENHG | failed
MTEQSAHEKYEFKKKLEGLRDKKGRSTELISLYIPPDKQIFDVTNQLKDEHGQAANIKSKLTRTNVQGAIESLLSRLRYLDKVPENGIVYFTGAVDIGANKTSMESEVIVPPDPITVYKYHCDSSFYLEPLEDMLKDKNTYGLLVLDRREATIGLLVGKRIQPFRNLTSTVPGKQRKGGQSAHRFQQLRLIAIHDFYKRIGDAASEVFMAVDHKDLKGVLIGGPSPTKEEFHAGEFLHHELMKKILGLFDTAYTDESGLSELVNAAGEKLQDLELMGQKNAVRDFFKELIADSGKVAYGESQVRANLEINSVDVLLLSEDLRAERVTTKCSVCGYENKWTRRWKPGEPAPAAGNCPKCGSSLEVTDVTDIVDEFSELADKSNAKVVFVSTDFDEGSQLMNAFGGIAAILRYNTGV | failed
